The text below walks through data of patent US20240254220A1 (CENTRICSBIO, published 2024).

Where a chain is given by its changes, count along the chain named.

By EC50 is commonly meant the concentration needed to bring the measured effect to its halfway point. Low readings indicate an effect from little substance, high ones a need for much substance.

T1: CD300c antigen (11832-H08H, Sino Biological) (human, UniProt Q08708 21-183)
T1 construct: Bought antigen; also called CD300c protein; CD300 antigen-like family member C
T1 sequence (looked up): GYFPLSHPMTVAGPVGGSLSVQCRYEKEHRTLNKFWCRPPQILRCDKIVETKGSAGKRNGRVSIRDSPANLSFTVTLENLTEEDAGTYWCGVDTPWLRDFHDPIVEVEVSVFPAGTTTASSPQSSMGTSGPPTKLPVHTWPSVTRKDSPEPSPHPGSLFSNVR

B1: CB301_H3L1_A10 (antibody, V domains shown)
VH: EVQLLESGGGLVQSGGSLRLSCAASGFTFSSYGMHWVRQAPGKGLEWVSAISGSGGSTYYADSVKGRFTISRDNSKNTLYLQMNSLRAEDTAVYYCVRGYGAMDVWGQGTLVTVSS
VL: QSVLTQPPSASGTPGQRVTISCTRSSGSIASNYVQWYQQLPGTAPKLLIYRNNQRPSGVPDRFSGSKSGTSASLAISGLRSEDEADYYCSSYTTSSTLVFGGGTKLTVL
B2: CB301_H3L1_A12 (antibody, V domains shown)
VH: B1 VH with S14P, G33A, E89K, V97A, R98S, A102L
VL: QSVLTQPPSASGTPGQRVTISCTGTSSDVGNYNLVSWYQQLPGTAPKLLIYSNNQRPSGVPDRFSGSKSGTSASLAISGLRSEDEADYYCSSYTGSNALLFGGGTKLTVL
B3: CB301_H3L1_E6 (antibody, V domains shown)
VH: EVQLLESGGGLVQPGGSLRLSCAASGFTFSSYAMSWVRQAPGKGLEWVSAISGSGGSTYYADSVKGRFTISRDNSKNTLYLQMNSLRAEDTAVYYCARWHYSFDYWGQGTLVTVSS
VL: QSVLTQPPSASGTPGQRVTISCRGNNIGSKRVHWYQQLPGTAPKLLIYSYNHRPSGVPDRFSGSKSGTSASLAITGLRSEDEADYYCNTWDDSLEGPVFGGGTKLTVL
B4: CL9 (antibody, V domains shown)
VH: EVQLLESGGGLVQPGGSLRLSCAASGFTFSSYYWSWVRQAPGKGLEWVSAISGSGGSTYYADSVKGRFTISRDNSKNTLYLQMNSLRAEDTAVYYCARIDVYGFDIWGQGTLVTVSS
VL: QSVLTQPPSASGTPGQRVTISCSGSTSNIGTNYVYWYQQLPGTAPKLLIYDNNNRPSGVPDRFSGSKSGTSASLAISGLRSEDEADYYCQTWDSSTDVVFGGGTKLTVL
notes: also called anti-CD300c monoclonal antibody CL9; CB301 antibody CL9
B5: SK17 (antibody, V domains shown)
VH: EVQLLESGGGLVQPGGSLRLSCAASGFTFSSYYWSWVRQAPGKGLEWVSTITGSGGSTDYANSVKGRFTISRDNSKNTLYLQMNSLRAEDTAVYYCATGGGIFDYWGQGTLVTVSS
VL: EIVLTQSPGTLSLSPGERATLSCQASQTISNYLNWYQQKPGQAPRLLIYDASNRATGIPDRFSGSGSGTDFTLTISRLEPEDFAVYYCQQYNSYPPSFGQGTKVEIK
notes: also called anti-CD300c monoclonal antibody SK17; CB301 antibody SK17
B6: CL4 (antibody, V domains shown)
VH: RVQLLESGGGLVQPGGSLRLSCAASGFTFGSNYMSWVRQAPGKGLEWVSTISGSGTSTYYADSLKGRFTISRDNSKNTLYLQMNSLRAEDTAVYYCARGMWGMDVWGQGTLVTVSS
VL: QSVLTQPPSASGTPGQRVTISCTGKHRHTVNWYQLLPGTAPKLLIYLDSERPSGVPDRFSGSKSGTSASLAISGLRSEDEADYYCQSYDSSSVVFGGGTKLTVL
notes: also called anti-CD300c monoclonal antibody CL4; CB301 antibody CL4
B7: CL6 (antibody, V domains shown)
VH: EVQLLESGGGLVQPGGSLRLSCAASGFTFSSYGMHWVRQAPGKGLEWVSAISGSGGSTYYADSVKGRFTISRDNSKNTLYLQMNSLRAEDTAVYYCAVSGAGRGFFDYWGQGTLVTVSS
VL: QSVLTQPPSASGTPGQRVTISCSGSSSNIGSNYVYWYQQLPGTAPKLLIYEDNKRPSGVPDRFSGSKSGTSASLAISGLRSEDEADYYCSSYTSSSTVIFGGGTKLTVL
notes: also called anti-CD300c monoclonal antibody CL6; CB301 antibody CL6
B8: CK2 (antibody, V domains shown)
VH: B1 VH with S14P, G56T, T58I, V97A, Y100G, G101T, M103F, V105Y
VL: EIVLTQSPGTLSLSPGERATLSCRASQRSDNYLAWYQQKPGQAPRLLIYDASNRATGIPDRFSGSGSGTDFTLTISRLEPEDFAVYYCQQSYSTPFTFGQGTKVETK
notes: also called anti-CD300c monoclonal antibody CK2; CB301 antibody CK2
B9: SK11 (antibody, V domains shown)
VH: B1 VH with E1R, S14P, S31T, V97A, Y100L, G101S, A102G, M103L, V105Y
VL: B8 VL with A25S, R28G, S29I, D30T, F96L, T106I
notes: also called anti-CD300c monoclonal antibody SK11; CB301 antibody SK11
B10: SK12 (antibody, V domains shown)
VH: RVQLLESGGGLVQPGGSLRLSCAASGFTFSSYAMHWVRQAPGKGLEWVSAISGSGGDTYHADSVKGRFTISRDNSKNTLYLQMNSLRAEDTAVYYCTRGLSGFDYWGQGTLVTVSS
VL: EIVLTQSPGTLSLSPGERATLSCRASQSISSYLNWYQQKPGQAPRLLIYDASNRAPGIPDRFSGSGSGTDFTLTISRLEPEDFAVYYCQQSYSIPITFGQGTKVEIKF
notes: also called anti-CD300c monoclonal antibody SK12; CB301 antibody SK12
B11: CK3 (antibody, V domains shown)
VH: RVQLLESGGGLVQPGGSLRLSCAASGFTFSSYAISWVRQAPGKGLEWVSATSGSGRATYYADSVKGRFTISRDNSKNTLYLQMNSLRAEDTAVYYCARDTWWEGYFDLWGQGTLVTVSS
VL: EIVLTQSPGTLSLSPGERATLSCQASHISTHLNWYQQKPGQAPRLLIYGASSRATGIPDRFSGSGSGTDFTLTISRLEPEDFAVYYCQQYNTYPPTFGQGTKVEIK
notes: also called anti-CD300c monoclonal antibody CK3; CB301 antibody CK3
B12: SK13 (antibody, V domains shown)
VH: RVQLLESGGGLVQPGGSLRLSCAASGFTFSDYAMSWVRQAPGKGLEWVSSISSSSSYIYYTDSVKGRFTISRDNSKNTLYLQMNSLRAEDTAVYYCARGGYGFDYWGQGTLVTVSS
VL: EIVLTQSPGTLSLSPGERATLSCRASQSISSYLNWYQQKPGQAPRLLIYSASSRPQGIPDRFSGSGSGTDFTLTISRLEPEDFAVYYCQQYDDLPFTFGQGTKVEIK
notes: also called anti-CD300c monoclonal antibody SK13; CB301 antibody SK13
B13: SK14 (antibody, V domains shown)
VH: EVQLLESGGGLVQPGGSLRLSCAASGFTFSNFAIAWVRQAPGKGLEWVSAISGRGTSTYYADSVKGRFTISRDNSKNTLYLQMNSLRAEDTAVYYCARGVSGFDSWGQGTLVTVSS
VL: B8 VL with R28S, S29I, D30S, N31S, Y32H, A51T, T106I
notes: also called anti-CD300c monoclonal antibody SK14; CB301 antibody SK14
B14: CK1 (antibody, V domains shown)
VH: EVQLLESGGGLVQPGGSLRLSCAASGFTFSRYAMTWVRQAPGKGLEWVSSMSGTGGTTYYADSVKGRFTISRDNSKNTLYLQMNSLRAEDTAVYYCARGAYGFDHWGQGTLVTVSS
VL: EIVLTQSPGTLSLSPGERATLSCRASQSIGNYLNWYQQKPGQAPRLLIYDASNLETGIPDRFSGSGSGTDFTLTISRLEPEDFAVYYCQQSSAIPYTFGQGTKVEIK
notes: also called anti-CD300c monoclonal antibody CK1; CB301 antibody CK1
B15: SK16 (antibody, V domains shown)
VH: B10 VH with H35S, S52N, D57S, Y59L, H60Y, T97A, L100V, Y105S
VL: B8 VL with A25I, R28S, S29I, D30S, N31S, A34N, N53L, S93K, F96I, T106I
notes: also called anti-CD300c monoclonal antibody SK16; CB301 antibody SK16
B16: SK15 (antibody, V domains shown)
VH: B10 VH with S52N, D57S, H60Y, M83T, T97A, S101Q
VL: B14 VL with R24Q, S28D, G30T, N53S, S92Y, A93S, I94T, Y96I
notes: also called anti-CD300c monoclonal antibody SK15; CB301 antibody SK15
B17: CL5 (antibody, V domains shown)
VH: RVQLLESGGGLVQPGGSLRLSCAASGFTFSSYAMHWVRQAPGKGLEWVSSISGGGYGTYYADSVKGRFTISRDNSKNTLYLQMNSLRAEDTAVYYCARSTVWAFDIWGQGTLVTVSS
VL: QSVLTQPPSASGTPGQRVTISCSGNNIGSKSVHWYQQLPGTAPKLLIYDVSKRPSERPDRFSGSKSGTSASLAISDLRSEDEADYYCQSFDSSGTWIFGGGTKLTVL
notes: also called anti-CD300c monoclonal antibody CL5; CB301 antibody CL5

In one test the target is T1, CD300c antigen (11832-H08H, Sino …). In words: selection ELISA of Example 1.2, scFv periplasmic extract on coated CD300c antigen. Here is the method: In order to select anti-CD300c monoclonal antibodies specifically binding, with high binding affinity, to a CD300c antigen, ELISA was performed using the library pool obtained by the same method as in Example 1.1. More specifically, each of a CD300c antigen and a CD300a antigen in a coating buffer (0.1 M sodium carbonate, pH 9.0) was dispensed into an ELISA plate at a concentration of 5 μg/mL per well, followed by incubation at room temperature for 3 hours, to allow the antigen to bind to the plate. The unbound antigens were removed by washing three times using phosphate buffered saline-Tween 20 (PBST), and then 350 μL of PBST supplemented with 2% bovine serum albumin (BSA) was added to each well, followed by incubation at room temperature for 1 hour and then washing again using PBST. Then, 25 μg of a periplasmic extract containing scFv obtained by the same method as in Example 1.1 was added thereto, followed by incubation for 1 hour at room temperature for antigen binding. After 1 hour, the unbound scFv was removed by washing three times using PBST, and then 4 μg/mL of an antibody for detection was added, followed by incubation again at room temperature for 1 hour. Subsequently, the unbound antibodies for detection were removed using PBST, and then HRP-conjugated anti-rabbit IgG was added, followed by incubation at room temperature for 1 hour. The unbound antibodies were removed again using PBST. Subsequently, 3,3′,5,5′-tetramethylbenzidine (TMB) solution was added, followed by incubation for 10 minutes for development. Then, 2 N sulfuric acid solution was added to terminate the development reaction, and the absorbance was measured at 450 nm to identify the antibodies specifically binding to the CD300c antigen.
On the technique in general: ELISA stands for enzyme-linked immunosorbent assay.
In the case of B1, the binding result is “binds”.
Still for that read-out and setting: next, B2: “binds”.
For B3, the binding result is listed as “binds”.

A further test shares this target. In words: binding ELISA, plate coated with CD300c antigen (8 µg/mL), HRP anti-Fc IgG detection. How it is done: In order to identify the antigen-binding ability of the anti-CD300c monoclonal antibodies produced in Example 1, binding ELISA was performed. Specifically, a CD300c antigen (11832-H08H, Sino Biological) or a CD300a antigen (12449-H08H, Sino Biological) in a coating buffer (0.1 M sodium carbonate, pH 9.0) was dispensed into an ELISA plate at a concentration of 8 μg/mL per well, followed by incubation at room temperature for 3 hours to allow the antigen to be bound to the plate. The unbound antigens were removed by washing three times using phosphate buffered saline-Tween 20 (PBST), and then 300 μL of PBST supplemented with 5% bovine serum albumin (BSA) was added to each well, followed by incubation at room temperature for 1 hour and then washing using PBST. Then, an anti-CD300c monoclonal antibody was diluted in quadruplicate and added thereto, followed by incubation for 1 hour at room temperature for antigen binding. After 1 hour, washing was performed three times using PBST to remove unbound anti-CD300c monoclonal antibody, and then 4 μg/mL of an antibody for detection (HRP conjugated anti-Fc IgG) was added, followed by incubation again at room temperature for 1 hour. Subsequently, the unbound antibody for detection was removed using PBST, and then TMB solution was added, followed by incubation for 10 minutes for development. Then, 2 N sulfuric acid solution was added to terminate the development reaction, and the absorbance was measured at 450 nm to identify the antibodies specifically binding to the CD300c antigen.
Molecule B4 displayed an EC50 of 0.094 µg/mL.
Turning to B5, the EC50 amounted to 0.054 µg/mL.
B6 returned an EC50 of 0.031 µg/mL. Compared with the last molecule, the EC50 is about 1.7-fold lower.
Same read-out and setting: next, B7: 0.148 µg/mL; B8: 0.033 µg/mL.
The same measure, in the same setting: as for B9, the figure is 0.052 µg/mL; as for B10, 0.067 µg/mL; as for B11, 0.793 µg/mL.
For B12, the 50% effective concentration (EC50) was 0.044 µg/mL.
Consider B13, for which a half-maximal effect (EC50) was put at 0.065 µg/mL.
B14 returned an EC50 of 0.056 µg/mL.
Same read-out and setting: next, B15: 2.42 µg/mL; B16: 14.7 µg/mL; B17: 0.032 µg/mL.
